According to the supplement of paper PMC7877785:
± gives the uncertainty stated by the source.

Experiment: self-splicing fitness, log relative to wild type (ln ratio); higher = more splicing; Tetrahymena group I intron in knt gene, E. coli kanamycin selection, DiMSum; sequences stand for … in CUCUCU…GGAGGGAAAAGUUAUCAGGCAUGCACCUGGUAGCUAGUCUUUAAACCAAUAGAUUGCAUCGGUUUAAAAGGCAAGACCGUCAAAUUGCGGGAAAGGGGUCAACAGCCGUUCAGUACCAAGUCUCAGGGGAAACUUUGAGAUGGCCUUGCAAAGGGUAUGGUAAUAAGCUGACGGACAUGGUCCUAACCACGCAGCCAAGUCCUAAGUCAACAGAUCUUCUGUUGAUAUGGAUGCAGUUCACAGACUAAAUGUCGGUCGGGGAAGAUGUAUUCUUCUCAUAAGAUAUAGUCGGACCUCUCCUUAAUGGGAGCUAGCGGAUGAAGUGAUGCAACACUGGAGCCGCUGGGAACUAAUUUGUAUGCGAAAGUAUAUUGAUUAGUUUUGGAGUACUCGUGGUCG
Procedure, shortened: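 A randomised library covering all eight P1ex-region intron nucleotides was built with the intron in the knt kanamycin-resistance gene on pET-22b(+) and held in E. coli BL21(DE3). Cells were grown overnight at 37°C or 30°C on LB agar, with or without 25 μg/mL kanamycin, plus 100 μg/mL carbenicillin, 50 μM IPTG and 0.2% rhamnose, and pooled colonies were amplicon-sequenced on an Illumina HiSeq 2500. DiMSum fitness is the error-weighted combination of wild-type-normalised replicate fold changes, kanamycin versus none.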

| Sequence | self-splicing fitness (ln) (30 °C) | self-splicing fitness (ln) (37 °C) |
| --- | --- | --- |
| UGCCAGCAAUAUUACGAAUA | -2.53 ± 0.16 | -0.828 ± 0.12 |
| UGCCAGCAAUAUUACGACAA | -1.19 ± 0.17 | 0.212 ± 0.13 |
| UGCCAGCAAUAUUACGACGU | -1.75 ± 0.14 | -1.26 ± 0.14 |
| UGCCAGCAAUAUUACGCAUG | -1.28 ± 0.085 | -1.43 ± 0.13 |
| UGCCAGCAAUAUUACGCUAC | -3.47 ± 0.16 | -2.78 ± 0.2 |
| UGCCAGCAAUAUUACGCUUC | -3.19 ± 0.23 | -1.86 ± 0.22 |
| UGCCAGCAAUAUUACGGACU | -0.709 ± 0.075 | 0.139 ± 0.089 |
| UGCCAGCAAUAUUACGGCUA | 0.121 ± 0.12 | 0.121 ± 0.12 |
| UGCCAGCAAUAUUACGGGCU | -2.6 ± 0.19 | -1.61 ± 0.18 |
| UGCCAGCAAUAUUACGGUAG | -1.89 ± 0.12 | -0.428 ± 0.11 |
| UGCCAGCAAUAUUACGUAUU | -2.8 ± 0.13 | -2.56 ± 0.16 |
| UGCCAGCAAUAUUACGUCAU | -3 ± 0.16 | -2.38 ± 0.18 |
| UGCCAGCAAUAUUACGUUGA | -2.21 ± 0.074 | -1.26 ± 0.082 |
| UGCCAGCAAUAUUACGUUGC | -2.93 ± 0.17 | -2.93 ± 0.18 |
| UGCGAGCAAUAUUACGACAC | -2.71 ± 0.3 | 0.803 ± 0.27 |
| UGCGAGCAAUAUUACGACGC | -3.46 ± 0.25 | – |
| UGCGAGCAAUAUUACGACUA | -1.26 ± 0.23 | -1.09 ± 0.28 |
| UGCGAGCAAUAUUACGAGCC | – | -1.67 ± 0.43 |
| UGCGAGCAAUAUUACGAGUA | -0.846 ± 0.14 | -1.84 ± 0.2 |
| UGCGAGCAAUAUUACGAUAG | -3.32 ± 0.27 | -1.7 ± 0.38 |
| UGCGAGCAAUAUUACGAUGA | -2.13 ± 0.16 | -1.4 ± 0.13 |
| UGCGAGCAAUAUUACGCACG | -2.22 ± 0.28 | -1.98 ± 0.36 |
| UGCGAGCAAUAUUACGCCGC | -3.34 ± 0.36 | -1.3 ± 0.43 |
| UGCGAGCAAUAUUACGCUAA | -1.92 ± 0.21 | -2.48 ± 0.26 |
| UGCGAGCAAUAUUACGGCCG | -1 ± 0.38 | – |

| Sequence | self-splicing fitness (ln) (30 °C) | self-splicing fitness (ln) (37 °C) |
| --- | --- | --- |
| UGCGAGCAAUAUUACGGCGU | -2.58 ± 0.18 | -0.48 ± 0.2 |
| UGCGAGCAAUAUUACGGGAG | -4.04 ± 0.19 | -2.61 ± 0.17 |
| UGCGAGCAAUAUUACGGUUU | -3.14 ± 0.3 | -2.62 ± 0.34 |
| UGCGAGCAAUAUUACGUACG | -3.12 ± 0.21 | -2.49 ± 0.22 |
| UGCGAGCAAUAUUACGUAUC | -1.76 ± 0.16 | -2.37 ± 0.34 |
| UGCGAGCAAUAUUACGUUCA | -1.45 ± 0.11 | -0.32 ± 0.15 |
| UGCUAGCAAUAUUACGCAAA | – | -0.861 ± 0.16 |
| UGCUAGCAAUAUUACGCACU | -2.3 ± 0.11 | -1.11 ± 0.11 |
| UGCUAGCAAUAUUACGCCAG | – | -2.17 ± 0.39 |
| UGCUAGCAAUAUUACGCCCA | 0.275 ± 0.1 | 0.384 ± 0.13 |
| UGCUAGCAAUAUUACGCCCU | -0.725 ± 0.27 | -0.338 ± 0.27 |
| UGCUAGCAAUAUUACGCUAC | -2.72 ± 0.48 | -2.32 ± 0.47 |
| UGCUAGCAAUAUUACGCUGA | -1.25 ± 0.12 | -1.18 ± 0.13 |
| UGCUAGCAAUAUUACGCUUA | -1.31 ± 0.11 | -0.517 ± 0.12 |
| UGCUAGCAAUAUUACGGCAA | -0.895 ± 0.16 | -1.1 ± 0.16 |
| UGCUAGCAAUAUUACGGCUU | -0.619 ± 0.13 | -1.06 ± 0.15 |
| UGCUAGCAAUAUUACGGGAG | -2.68 ± 0.17 | -1.65 ± 0.13 |
| UGCUAGCAAUAUUACGGUGA | -1.42 ± 0.12 | -0.513 ± 0.13 |
| UGCUAGCAAUAUUACGGUGU | -3.16 ± 0.14 | -2.38 ± 0.19 |
| UGCUAGCAAUAUUACGUACG | -0.494 ± 0.09 | 0.0248 ± 0.1 |
| UGCUAGCAAUAUUACGUACU | -0.707 ± 0.075 | -0.893 ± 0.089 |
| UGCUAGCAAUAUUACGUGCG | -1.94 ± 0.1 | -1.7 ± 0.12 |
| UGCUAGCAAUAUUACGUGGA | -3 ± 0.19 | -2.44 ± 0.15 |
| UGCUAGCAAUAUUACGUGUG | -1.63 ± 0.08 | -0.822 ± 0.096 |
